Source: IntAct's records for PubMed 30591568

B1: CD226 antigen (Mus musculus), Q8K4F0 (parent)
chain: MAYVTWLLAILHVHKALCEETLWDTTVRLSETMTLECVYPLTHNLTQVEWTKNTGTKTVSIAVYNPNHNMHIESNYLHRVHFLNSTVGFRNMSLSFYNASEADIGIYSCLFHAFPNGPWEKKIKVVWSDSFEIAAPSDSYLSAEPGQDVTLTCQLPRTWPVQQVIWEKVQPHQVDILASCNLSQETRYTSKYLRQTRSNCSQGSMKSILIIPNAMAADSGLYRCRSEAITGKNKSFVIRLIITDGGTNKHFILPIVGGLVSLLLVILIIIIFILYNRKRRRQVRIPLKEPRDKQSKVATNCRSPTSPIQSTDDEKEDIYVNYPTFSRRPKPRL
partner: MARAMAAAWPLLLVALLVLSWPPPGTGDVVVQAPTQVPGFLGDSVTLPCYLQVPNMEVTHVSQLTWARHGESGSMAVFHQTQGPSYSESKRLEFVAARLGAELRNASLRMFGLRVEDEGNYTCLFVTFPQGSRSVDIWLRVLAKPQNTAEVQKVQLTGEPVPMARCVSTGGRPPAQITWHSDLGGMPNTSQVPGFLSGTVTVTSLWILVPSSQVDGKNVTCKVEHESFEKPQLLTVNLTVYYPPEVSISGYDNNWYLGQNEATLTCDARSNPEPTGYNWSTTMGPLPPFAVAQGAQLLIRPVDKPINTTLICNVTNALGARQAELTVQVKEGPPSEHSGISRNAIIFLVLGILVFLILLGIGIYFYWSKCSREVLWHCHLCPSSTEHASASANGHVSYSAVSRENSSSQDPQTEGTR
B2: Poliovirus receptor (Homo sapiens), P15151 (parent)
chain: B1 partner
partner: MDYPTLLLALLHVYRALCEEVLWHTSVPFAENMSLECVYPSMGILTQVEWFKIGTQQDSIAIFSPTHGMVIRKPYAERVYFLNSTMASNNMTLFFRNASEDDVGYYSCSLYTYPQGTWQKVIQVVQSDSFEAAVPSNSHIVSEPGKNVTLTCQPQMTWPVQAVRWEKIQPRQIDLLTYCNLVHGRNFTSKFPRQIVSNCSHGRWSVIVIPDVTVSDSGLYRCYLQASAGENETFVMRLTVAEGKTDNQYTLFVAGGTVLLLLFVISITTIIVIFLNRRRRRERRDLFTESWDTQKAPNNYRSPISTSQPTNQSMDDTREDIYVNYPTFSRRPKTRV
B3: Poliovirus receptor (Homo sapiens), P15151 (parent)
chain: B1 partner
partner: B1 chain

Variants of: B1
Settings: with pvr_human PVR, P15151

Variant | effect of a mutation on the interaction
MAYVTWLLAILHVHKALCEETLWDTTVRLSETMTLECVYPLTHNLTQVEWTKNTGTKTVSIAVYNPNHNMHIESNYLHRVHFLNSTVGFRNMSLSFYNASEADIGIYSCLFHAAPNGPWEKKIKVVWSDSFEIAAPSDSYLSAEPGQDVTLTCQLPRTWPVQQVIWEKVQPHQVDILASCNLSQETRYTSKYLRQTRSNCSQGSMKSILIIPNAMAADSGLYRCRSEAITGKNKSFVIRLIITDGGTNKHFILPIVGGLVSLLLVILIIIIFILYNRKRRRQVRIPLKEPRDKQSKVATNCRSPTSPIQSTDDEKEDIYVNYPTFSRRPKPRL [F114A] | disrupting interaction strength
MAYVTWLLAILHVHKALCEETLWDTTVRLSETMTLECVYPLTHNLTQVEWTKNTGTKTVSIAVYNPNANMHIESNYLHRVHFLNSTVGFRNMSLSFYNASEADIGIYSCLFHAFPNGPWEKKIKVVWSDSFEIAAPSDSYLSAEPGQDVTLTCQLPRTWPVQQVIWEKVQPHQVDILASCNLSQETRYTSKYLRQTRSNCSQGSMKSILIIPNAMAADSGLYRCRSEAITGKNKSFVIRLIITDGGTNKHFILPIVGGLVSLLLVILIIIIFILYNRKRRRQVRIPLKEPRDKQSKVATNCRSPTSPIQSTDDEKEDIYVNYPTFSRRPKPRL [H68A] | decreasing interaction strength
MAYVTWLLAILHVHKALCEETLWDTTVRLSETMTLECVYPLTHNLTAVEWTKNTGTKTVSIAVYNPNHNMHIESNYLHRVHFLNSTVGFRNMSLSFYNASEADIGIYSCLFHAFPNGPWEKKIKVVWSDSFEIAAPSDSYLSAEPGQDVTLTCQLPRTWPVQQVIWEKVQPHQVDILASCNLSQETRYTSKYLRQTRSNCSQGSMKSILIIPNAMAADSGLYRCRSEAITGKNKSFVIRLIITDGGTNKHFILPIVGGLVSLLLVILIIIIFILYNRKRRRQVRIPLKEPRDKQSKVATNCRSPTSPIQSTDDEKEDIYVNYPTFSRRPKPRL [Q47A] | disrupting interaction strength
MAYVTWLLAILHVHKALCEETLWDTTVRLSETMTLECVYPLTHNLTRVRWTKNTGTKTVSIAVYNPNSNMHIESNYLHRVHFLNSTVGFRNMSLSFYNASEADIGIYSCLFHARPNGPWEKKIKVVWSDSFEIAAPSDSYLSAEPGQDVTLTCQLPRTWPVQQVIWEKVQPHQVDILASCNLSQETRYTSKYLRQTRSNCSQGSMKSILIIPNAMAADSGLYRCRSEAITGKNKSFVIRLIITDGGTNKHFILPIVGGLVSLLLVILIIIIFILYNRKRRRQVRIPLKEPRDKQSKVATNCRSPTSPIQSTDDEKEDIYVNYPTFSRRPKPRL [Q47R;E49R;H68S;F114R] | disrupting interaction strength

Variants of: B2
Settings: with cd226_human CD226, Q15762

Variant | effect of a mutation on the interaction
MARAMAAAWPLLLVALLVLSWPPPGTGDVVVQAPTQVPGFLGDSVTLPCYLQVPNMEVTHVSRLTWARHGESGSMAVFHQTQGPSYSESKRLEFVAARLGAELRNASLRMFGLRVEDEGNYTCLFVTRPQGSRSVDIWLRVLAKPQNTAEVQKVQLTGEPVPMARCVSTGGRPPAQITWHSDLGGMPNTSQVPGFLSGTVTVTSLWILVPSSQVDGKNVTCKVEHESFEKPQLLTVNLTVYYPPEVSISGYDNNWYLGQNEATLTCDARSNPEPTGYNWSTTMGPLPPFAVAQGAQLLIRPVDKPINTTLICNVTNALGARQAELTVQVKEGPPSEHSGISRNAIIFLVLGILVFLILLGIGIYFYWSKCSREVLWHCHLCPSSTEHASASANGHVSYSAVSRENSSSQDPQTEGTR [Q63R;F128R] | disrupting interaction strength

Variants of: B3
Settings: with cd226_mouse Cd226, Q8K4F0

Variant | effect of a mutation on the interaction
MARAMAAAWPLLLVALLVLSWPPPGTGDVVVQAPTQVPGFLGDSVTLPCYLQVPNMEVTHVSRLTWARHGESGSMAVFHQTQGPSYSESKRLEFVAARLGAELRNASLRMFGLRVEDEGNYTCLFVTRPQGSRSVDIWLRVLAKPQNTAEVQKVQLTGEPVPMARCVSTGGRPPAQITWHSDLGGMPNTSQVPGFLSGTVTVTSLWILVPSSQVDGKNVTCKVEHESFEKPQLLTVNLTVYYPPEVSISGYDNNWYLGQNEATLTCDARSNPEPTGYNWSTTMGPLPPFAVAQGAQLLIRPVDKPINTTLICNVTNALGARQAELTVQVKEGPPSEHSGISRNAIIFLVLGILVFLILLGIGIYFYWSKCSREVLWHCHLCPSSTEHASASANGHVSYSAVSRENSSSQDPQTEGTR [Q63R;F128R] | disrupting interaction strength
